Experiments:
H2B:mRFP = H2B:mRFP (UniProt P06899); assay: FRET or BRET; FLIM-FRET in cells in interphase; GFP fusion as donor, mRFP or dsRed fusion as acceptor; multiphoton excitation at 890 nm; at least 20 cells per condition
[1] = target: Importin β (endogenous, DT40); assay: TrAP-tag pull-down and mass spectrometry; details: DT40 cells blocked in mitosis with colcemid, then forced to exit from mitosis by addition of roscovitine; parent: 15
[2] = target: NUP153 (endogenous, DT40); assay: TrAP-tag pull-down and mass spectrometry; details: DT40 cells blocked in mitosis with colcemid, then forced to exit from mitosis by addition of roscovitine; parent: 8
NUP50 (endogenous, DT40) = assay: TrAP-tag pull-down and mass spectrometry; details: DT40 cells blocked in mitosis with colcemid, then forced to exit from mitosis by addition of roscovitine; parent: 17
PP1 = assay: TrAP-tag pull-down and mass spectrometry; details: DT40 cells blocked in mitosis with colcemid, then forced to exit from mitosis by addition of roscovitine; parent: 18
histone H2B = assay: TrAP-tag pull-down and mass spectrometry; details: DT40 cells blocked in mitosis with colcemid, then forced to exit from mitosis by addition of roscovitine; parent: 12
histone H3 = assay: TrAP-tag pull-down and mass spectrometry; details: DT40 cells blocked in mitosis with colcemid, then forced to exit from mitosis by addition of roscovitine; parent: 17

| E FRET (H2B:mRFP) [%] | other: number of peptides identified by mass spectrometry [1] | other: number of peptides identified by mass spectrometry [2] | other: number of peptides identified by mass spectrometry (NUP50 (endogenous, DT40)) | other: number of peptides identified by mass spectrometry (PP1) | other: number of peptides identified by mass spectrometry (histone H2B) | other: number of peptides identified by mass spectrometry (histone H3) | Substance |
| --- | --- | --- | --- | --- | --- | --- | --- |
| 22 | – | – | – | – | – | – | GFP:Repo-Man (from UniProt Q69YH5 1-1023) (natural protein) |
| – | 35 | 34 | 17 | -0 | 14 | 12 | TrAP:hRepo-Man^WT (from UniProt Q69YH5) RVTF>RAXA (V>A; F>A in the RVTF motif, residue numbers not printed) |

Source: publication PMC3480639
